The values below are quoted from earlier work in publication PMC6244792.

Values joined by “and” are separate entries in the source; they are usually repeats but may differ in a detail not shown here. Equal values may be shown once. Read-outs that look alike come from different tables or passages of the source.

The target in data set [1] is cpFtsY (Arabidopsis thaliana) (UniProt O80842). As to the kind of experiment: FRET.
Data set [2] concerns the target RRKRp10 (cpSRP54 C-terminal peptide) (Arabidopsis thaliana) (UniProt P37107).
The target of data set [3] is cpSRP54 peptide RRKRp10 RRKRp10 (Arabidopsis thaliana) (UniProt P37107).
For data set [4], the target named is cpSRP54 M domain (Arabidopsis thaliana) (UniProt P37107). As to the kind of experiment: SPR.
For data set [5], the target named is cpSRP54 (Arabidopsis thaliana) (UniProt P37107). Kind of data set: FCS.
The target of data set [6] is LHCP L11 peptide (Arabidopsis thaliana). As to the kind of experiment: FA.
For data set [7], the target named is LHCP L18 peptide (Arabidopsis thaliana). As to the kind of experiment: ITC.
For data set [8] the target is unchanged. As to the kind of experiment: ITC. This is another data set of the same source.
Data set [9] addresses LHCP L11 peptide (Arabidopsis thaliana). Kind of data set: FA. The source holds these as a separate data set.
In data set [10] the target is Alb3 C-terminus (Arabidopsis thaliana) (UniProt Q8LBP4). As to the kind of experiment: FA.
Data set [11] concerns the target cpSRP54 (Arabidopsis thaliana) (UniProt P37107). As to the kind of experiment: MST.
For data set [12], the target named is cpFtsY (Arabidopsis thaliana) (UniProt O80842). As to the kind of experiment: FRET. The source holds these as a separate data set.
The target is the same in data set [13]. Kind of data set: FRET. This is another data set of the same source.

Sequence of cpFtsY (Arabidopsis thaliana) (O80842 41-366): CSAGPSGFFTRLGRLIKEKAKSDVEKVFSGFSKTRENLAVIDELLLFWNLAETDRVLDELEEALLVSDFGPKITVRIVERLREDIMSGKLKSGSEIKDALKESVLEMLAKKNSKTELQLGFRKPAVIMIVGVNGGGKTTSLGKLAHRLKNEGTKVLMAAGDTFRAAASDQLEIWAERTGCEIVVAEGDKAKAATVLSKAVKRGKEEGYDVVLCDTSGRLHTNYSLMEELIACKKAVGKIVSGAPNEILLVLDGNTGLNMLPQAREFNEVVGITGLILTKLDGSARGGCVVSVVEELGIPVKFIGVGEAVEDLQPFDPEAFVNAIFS
Sequence of Alb3 C-terminus (Arabidopsis thaliana) (Q8LBP4 339-462): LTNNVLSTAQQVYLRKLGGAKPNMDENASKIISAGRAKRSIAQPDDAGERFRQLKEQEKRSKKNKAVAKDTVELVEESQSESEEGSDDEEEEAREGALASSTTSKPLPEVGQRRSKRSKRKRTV
Sequence of cpSRP54 (P37107 76-564): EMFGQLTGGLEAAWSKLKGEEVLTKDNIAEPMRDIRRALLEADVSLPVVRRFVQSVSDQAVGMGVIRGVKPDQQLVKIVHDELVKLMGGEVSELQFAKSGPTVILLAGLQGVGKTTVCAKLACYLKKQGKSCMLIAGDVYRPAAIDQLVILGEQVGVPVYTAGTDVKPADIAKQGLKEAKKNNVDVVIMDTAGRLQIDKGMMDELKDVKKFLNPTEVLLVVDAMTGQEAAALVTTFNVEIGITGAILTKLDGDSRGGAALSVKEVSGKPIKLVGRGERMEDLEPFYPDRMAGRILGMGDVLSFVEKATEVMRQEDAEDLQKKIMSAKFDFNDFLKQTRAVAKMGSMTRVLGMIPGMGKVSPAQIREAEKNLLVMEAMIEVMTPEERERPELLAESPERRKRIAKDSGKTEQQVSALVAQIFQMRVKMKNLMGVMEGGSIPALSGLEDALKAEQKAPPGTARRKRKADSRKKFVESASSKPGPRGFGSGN
Sequence of cpSRP54 (Arabidopsis thaliana) (P37107 76-564): as above
Sequence of cpSRP54 M domain (Arabidopsis thaliana) (P37107 371-564): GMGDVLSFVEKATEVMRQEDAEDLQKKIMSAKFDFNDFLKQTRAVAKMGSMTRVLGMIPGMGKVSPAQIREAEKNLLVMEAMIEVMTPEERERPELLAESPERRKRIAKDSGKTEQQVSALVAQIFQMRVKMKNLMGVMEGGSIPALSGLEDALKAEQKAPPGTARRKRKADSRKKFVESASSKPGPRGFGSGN
Sequence of cpSRP54 NG domain (P37107 76-370): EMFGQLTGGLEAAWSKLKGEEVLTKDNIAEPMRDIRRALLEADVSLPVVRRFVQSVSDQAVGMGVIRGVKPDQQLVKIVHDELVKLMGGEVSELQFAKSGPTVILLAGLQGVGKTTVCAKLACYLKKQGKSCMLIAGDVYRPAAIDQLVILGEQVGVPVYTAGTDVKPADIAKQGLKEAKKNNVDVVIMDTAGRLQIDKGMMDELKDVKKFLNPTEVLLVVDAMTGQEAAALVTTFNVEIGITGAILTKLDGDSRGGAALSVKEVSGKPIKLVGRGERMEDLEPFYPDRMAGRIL
Sequence of RRKRp10 (cpSRP54 C-terminal peptide) (Arabidopsis thaliana) (P37107 whole entry, looked up, tested part not stated): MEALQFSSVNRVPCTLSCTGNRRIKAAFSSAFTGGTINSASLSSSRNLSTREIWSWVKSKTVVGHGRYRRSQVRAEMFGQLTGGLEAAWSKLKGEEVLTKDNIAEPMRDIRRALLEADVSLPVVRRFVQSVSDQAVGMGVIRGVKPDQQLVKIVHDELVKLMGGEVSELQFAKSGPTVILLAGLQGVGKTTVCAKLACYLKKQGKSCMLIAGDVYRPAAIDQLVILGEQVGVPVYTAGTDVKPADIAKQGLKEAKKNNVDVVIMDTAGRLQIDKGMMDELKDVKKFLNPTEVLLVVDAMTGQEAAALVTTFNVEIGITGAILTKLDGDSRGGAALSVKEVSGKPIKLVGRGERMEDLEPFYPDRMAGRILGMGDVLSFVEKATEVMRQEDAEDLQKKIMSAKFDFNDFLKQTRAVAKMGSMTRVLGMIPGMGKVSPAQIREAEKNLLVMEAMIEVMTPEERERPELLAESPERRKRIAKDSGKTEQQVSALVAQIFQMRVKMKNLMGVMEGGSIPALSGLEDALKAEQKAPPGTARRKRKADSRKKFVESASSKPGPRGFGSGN
Sequence of cpSRP54 peptide RRKRp10 RRKRp10 (Arabidopsis thaliana) (P37107 whole entry, looked up, tested part not stated): as above

For the substance cpSRP54 NG domain (from UniProt P37107), in [1], the Kd was 12000 nM.

Regarding cpSRP43 (from UniProt O22265), the Kd in data set [2] was 390 nM; in data set [3] it was 390 nM; in data set [4], 2.5 nM; in data set [5] it was 95 nM; in data set [6], 22 nM; in [7] it was 1170 nM and 322 nM. Moreover, the Kd in [8] was 107 nM; in data set [9], 11 nM; in data set [10] it was 18000 nM and 12000 nM and 15000 nM; in data set [11], 50 nM.

Take cpSRP54 (from UniProt P37107): the Kd in data set [12] was 770 nM; in data set [13], 130 nM; in [1], 2340 nM.
